Experimental findings from patent US20110178027A1 (SOCIETE DE COMMERCIALISATION DES PRODUITS DE LA RECHERCHE …, published 2011) are described below.

Values joined by “and” are separate entries in the source; they are usually repeats but may differ in a detail not shown here. Equal entries are not always repeated. No end group written: not given here.

In experiment [1] the target is T1, PC4 (UniProt Q6UW60 114-708, limits assumed).
T1 sequence (looked up): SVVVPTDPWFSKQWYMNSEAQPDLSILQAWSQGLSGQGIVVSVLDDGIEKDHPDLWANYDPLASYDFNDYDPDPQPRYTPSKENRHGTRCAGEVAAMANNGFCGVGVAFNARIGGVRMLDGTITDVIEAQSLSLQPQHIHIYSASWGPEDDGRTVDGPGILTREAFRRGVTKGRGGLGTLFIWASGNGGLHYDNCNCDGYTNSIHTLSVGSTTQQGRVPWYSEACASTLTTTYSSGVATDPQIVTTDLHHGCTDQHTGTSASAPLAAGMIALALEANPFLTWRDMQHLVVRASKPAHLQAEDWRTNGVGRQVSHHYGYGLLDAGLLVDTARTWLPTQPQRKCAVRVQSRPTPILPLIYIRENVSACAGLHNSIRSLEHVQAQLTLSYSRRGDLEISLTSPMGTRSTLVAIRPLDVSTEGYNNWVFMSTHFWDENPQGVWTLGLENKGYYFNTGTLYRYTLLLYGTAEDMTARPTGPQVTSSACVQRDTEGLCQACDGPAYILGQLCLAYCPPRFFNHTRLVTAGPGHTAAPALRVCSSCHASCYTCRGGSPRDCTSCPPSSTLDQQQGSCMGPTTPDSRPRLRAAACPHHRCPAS
Nature of the experiment: enzyme inhibition assay, fluorogenic substrate PyrRTKR-MCA.
Experimental: (§1) Enzyme inhibition assays for furin (FIG. 5D) were performed in 100 mM Hepes pH 7.5, 1 mM CaCl₂, 1 mM β-mercaptoethanol, 0.5 μg/μL BSA. Assays for PC2 (FIG. 5E) were performed in 20 mM Bis-Tris pH 5.7, 1 mM CaCl₂, 0.1% Brij-30. Assays for PC1/3, PC4, PACE4, PC5/6 and PC7 (FIGS. 5F, G, A, B and C respectively) were performed in 20 mM Bis-T is pH 6.5, 1 mM CaCl₂. […] Inhibitory peptides were added to the enzymes at decreasing concentrations from 100 μM to 50 nM and incubated 5 minutes prior to the addition of substrate. […] Each Kᵢ value is the mean of 2 to 10 independent experiments.

In experiment [2] the target is T2, PC1/3 (UniProt P29120 111-753, limits assumed).
T2 sequence (looked up): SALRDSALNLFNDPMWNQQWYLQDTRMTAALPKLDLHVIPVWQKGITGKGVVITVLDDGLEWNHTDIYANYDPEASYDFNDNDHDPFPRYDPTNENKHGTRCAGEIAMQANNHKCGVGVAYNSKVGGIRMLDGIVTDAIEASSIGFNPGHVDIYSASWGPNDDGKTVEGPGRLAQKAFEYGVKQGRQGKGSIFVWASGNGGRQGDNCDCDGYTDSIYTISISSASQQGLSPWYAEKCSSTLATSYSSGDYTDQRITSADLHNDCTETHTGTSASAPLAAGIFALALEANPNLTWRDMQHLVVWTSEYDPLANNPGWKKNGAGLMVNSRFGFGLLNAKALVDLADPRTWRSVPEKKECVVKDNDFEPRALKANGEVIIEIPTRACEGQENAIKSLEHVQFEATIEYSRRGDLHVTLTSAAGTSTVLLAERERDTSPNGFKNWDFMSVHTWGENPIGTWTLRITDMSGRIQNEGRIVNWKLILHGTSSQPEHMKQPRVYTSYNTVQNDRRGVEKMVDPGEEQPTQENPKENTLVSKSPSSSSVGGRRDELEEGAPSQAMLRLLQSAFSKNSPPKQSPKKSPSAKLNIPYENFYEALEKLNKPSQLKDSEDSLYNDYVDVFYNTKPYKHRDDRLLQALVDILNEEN
The experiment is described as above.
Experimental: as §1

Experiment [3] has as its target T3, PC2 (UniProt P16519 110-638, limits assumed).
T3 sequence (looked up): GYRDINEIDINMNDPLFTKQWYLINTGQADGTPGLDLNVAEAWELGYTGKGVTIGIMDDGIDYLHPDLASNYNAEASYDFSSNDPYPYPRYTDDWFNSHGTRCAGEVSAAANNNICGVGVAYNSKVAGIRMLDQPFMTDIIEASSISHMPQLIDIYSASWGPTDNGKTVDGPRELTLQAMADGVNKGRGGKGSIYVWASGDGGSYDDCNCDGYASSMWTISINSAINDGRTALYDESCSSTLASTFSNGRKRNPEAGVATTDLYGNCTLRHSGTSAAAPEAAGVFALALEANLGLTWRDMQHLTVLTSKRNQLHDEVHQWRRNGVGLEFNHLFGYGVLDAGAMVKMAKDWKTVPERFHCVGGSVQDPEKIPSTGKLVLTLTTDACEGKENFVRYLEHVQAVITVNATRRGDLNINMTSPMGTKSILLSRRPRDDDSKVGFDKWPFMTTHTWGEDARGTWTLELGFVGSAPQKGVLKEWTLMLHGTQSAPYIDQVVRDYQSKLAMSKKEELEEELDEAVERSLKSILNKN
Described as above.
Experimental: as §1

Experiment [4] deals with T4, PC5/6 (UniProt Q92824-2 115-913, limits assumed).
T4 sequence (looked up): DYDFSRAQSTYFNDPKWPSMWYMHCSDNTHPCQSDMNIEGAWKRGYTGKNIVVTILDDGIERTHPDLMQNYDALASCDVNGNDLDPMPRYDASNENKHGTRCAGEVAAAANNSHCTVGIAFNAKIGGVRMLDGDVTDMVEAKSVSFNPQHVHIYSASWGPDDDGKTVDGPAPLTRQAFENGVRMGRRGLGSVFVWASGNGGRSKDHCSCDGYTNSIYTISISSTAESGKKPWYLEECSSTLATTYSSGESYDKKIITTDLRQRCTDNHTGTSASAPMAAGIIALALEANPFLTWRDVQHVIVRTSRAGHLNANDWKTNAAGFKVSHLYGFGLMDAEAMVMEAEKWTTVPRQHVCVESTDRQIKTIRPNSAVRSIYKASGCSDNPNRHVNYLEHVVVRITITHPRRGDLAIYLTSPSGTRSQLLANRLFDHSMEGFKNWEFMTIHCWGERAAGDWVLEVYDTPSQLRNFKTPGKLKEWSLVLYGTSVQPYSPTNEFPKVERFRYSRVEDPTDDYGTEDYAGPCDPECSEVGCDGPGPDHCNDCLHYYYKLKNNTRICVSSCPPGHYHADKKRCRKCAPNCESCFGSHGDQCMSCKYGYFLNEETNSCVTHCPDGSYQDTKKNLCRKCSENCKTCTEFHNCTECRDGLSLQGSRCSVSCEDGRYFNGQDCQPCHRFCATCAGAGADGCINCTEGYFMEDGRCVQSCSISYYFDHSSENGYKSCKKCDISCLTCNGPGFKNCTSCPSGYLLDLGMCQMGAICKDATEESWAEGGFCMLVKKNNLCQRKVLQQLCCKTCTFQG
The description is as above.
Experimental: as §1

Experiment [5] has as its target T5, PC7 (UniProt Q16549 142-667, limits assumed).
T5 sequence (looked up): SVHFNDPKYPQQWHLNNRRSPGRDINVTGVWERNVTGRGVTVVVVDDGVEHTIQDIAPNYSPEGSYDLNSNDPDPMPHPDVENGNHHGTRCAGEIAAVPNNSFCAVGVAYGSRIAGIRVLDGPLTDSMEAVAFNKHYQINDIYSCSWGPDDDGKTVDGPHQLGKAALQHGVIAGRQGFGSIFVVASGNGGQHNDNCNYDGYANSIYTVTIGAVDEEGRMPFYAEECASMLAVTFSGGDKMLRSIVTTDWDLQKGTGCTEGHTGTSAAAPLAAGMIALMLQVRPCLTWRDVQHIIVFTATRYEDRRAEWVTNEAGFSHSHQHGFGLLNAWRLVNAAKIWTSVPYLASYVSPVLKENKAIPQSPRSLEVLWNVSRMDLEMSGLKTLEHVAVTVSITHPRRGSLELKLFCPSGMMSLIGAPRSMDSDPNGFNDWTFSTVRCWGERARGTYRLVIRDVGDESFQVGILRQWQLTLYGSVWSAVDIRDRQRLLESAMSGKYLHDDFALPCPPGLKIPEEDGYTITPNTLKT
The experiment is described as above.
Experimental: as §1

The target of experiment [6] is T6, PACE4 (UniProt P29122 150-969, limits assumed).
T6 sequence (looked up): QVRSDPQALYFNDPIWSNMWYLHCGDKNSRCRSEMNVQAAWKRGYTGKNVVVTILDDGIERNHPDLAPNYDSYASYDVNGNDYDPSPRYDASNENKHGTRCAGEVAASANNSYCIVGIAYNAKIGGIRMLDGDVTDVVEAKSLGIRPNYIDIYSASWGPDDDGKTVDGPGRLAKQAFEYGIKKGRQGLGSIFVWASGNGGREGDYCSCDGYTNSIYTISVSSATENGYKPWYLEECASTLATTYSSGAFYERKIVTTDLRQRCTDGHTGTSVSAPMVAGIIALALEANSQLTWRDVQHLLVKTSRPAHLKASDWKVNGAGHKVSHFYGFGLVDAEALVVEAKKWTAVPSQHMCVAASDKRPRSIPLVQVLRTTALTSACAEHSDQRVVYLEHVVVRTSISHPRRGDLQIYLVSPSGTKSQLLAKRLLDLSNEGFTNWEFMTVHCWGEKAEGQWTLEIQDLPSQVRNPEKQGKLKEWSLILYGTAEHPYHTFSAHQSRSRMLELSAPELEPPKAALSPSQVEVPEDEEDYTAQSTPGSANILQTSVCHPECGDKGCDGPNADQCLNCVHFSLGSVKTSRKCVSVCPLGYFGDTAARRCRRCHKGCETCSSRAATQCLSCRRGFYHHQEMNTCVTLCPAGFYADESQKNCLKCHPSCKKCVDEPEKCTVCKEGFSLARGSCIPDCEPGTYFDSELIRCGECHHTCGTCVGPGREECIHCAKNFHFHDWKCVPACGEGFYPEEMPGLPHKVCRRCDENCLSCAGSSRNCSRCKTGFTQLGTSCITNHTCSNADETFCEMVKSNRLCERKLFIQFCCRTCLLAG
The description is as above.
Experimental: as §1

Experiment [7] concerns the target furin (UniProt P09958 108-715, limits assumed). Described as above.
Experimental: as §1
Experiment [8] addresses T6, PACE4. Nature of the experiment: enzyme inhibition assay, ratio of Ki values against the other PCs.
Experimental: as §1

As usually defined, the Ki is the dissociation constant of the complex between target and ligand, obtained from inhibition or displacement. High values mean a looser hold on the target, low ones a stronger hold on the target.

furin, sequence (P09958 108-715 limits assumed): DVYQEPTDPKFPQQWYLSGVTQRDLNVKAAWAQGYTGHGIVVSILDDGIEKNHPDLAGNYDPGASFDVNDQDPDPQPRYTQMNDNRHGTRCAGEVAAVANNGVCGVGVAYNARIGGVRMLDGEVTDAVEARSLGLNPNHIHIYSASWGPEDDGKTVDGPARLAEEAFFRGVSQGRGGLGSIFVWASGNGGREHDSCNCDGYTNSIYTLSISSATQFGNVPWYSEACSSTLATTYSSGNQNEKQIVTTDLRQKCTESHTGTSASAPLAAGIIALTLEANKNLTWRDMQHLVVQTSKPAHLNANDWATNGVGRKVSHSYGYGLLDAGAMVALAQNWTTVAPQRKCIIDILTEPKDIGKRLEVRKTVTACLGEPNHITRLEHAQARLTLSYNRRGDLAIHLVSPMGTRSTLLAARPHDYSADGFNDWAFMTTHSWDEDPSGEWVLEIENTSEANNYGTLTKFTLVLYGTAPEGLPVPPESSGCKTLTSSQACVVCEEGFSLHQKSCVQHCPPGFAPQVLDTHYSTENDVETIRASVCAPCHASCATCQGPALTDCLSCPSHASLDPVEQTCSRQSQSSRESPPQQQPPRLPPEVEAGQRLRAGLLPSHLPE

B1: LLLLLRVKR-NH2 (peptide)
peptide: LLLLLRVKR-NH2
notes: also called 5 Leu; multi-leucine peptide containing five leucines
B1: in experiment [1], the affinity, expressed as Ki, was 164 nM. In other words, the sub-micromolar range.

In the case of LLLLRVKR-NH2 (also called 4 Leu; Multi-Leu (ML)) [LLLLRVKR-NH2], the Ki in experiment [2] was 454 nM; in experiment [3] it was 18800 nM; in experiment [1] it was 205 nM; in experiment [4] it was 245 nM; in experiment [5], 54 nM and 50 nM; in experiment [6], 6 nM and 5.5 nM and 5 nM. The molecule also had a Ki in experiment [7] of 114 nM. Also, the “fold more effective on PACE4 than the other PCs” value in experiment [8] is at least 9 fold.
